Patent US8617548B2 (priority 2006, dated 2013)
Like-named read-outs stand apart in the source and are kept apart here.

B1: ETI-204 (antibody, chains of the INN, looked up, V domains shown)
VH: QVQLQQSGPELKKPGASVKVSCKDSGYAFSSSWMNWVRQAPGQGLEWIGRIYPGDGDTNYNGKFQGRVTITADKSSSTAYMELSSLRSEDTAVYFCARSGLLRYAMDYWGQGTLVTVSS
VL: DIQMTQSPSSLSASVGDRVTITCRASQDIRNYLNWYQQKPGKAVKLLIYYTSRLLPGVPSRFSGSGSGTDYSLTISSQEQEDIGTYFCQQGNTLPWTFGQGTKVEIR

Tests used:
B. anthracis = system: B. anthracis; design: species or system New Zealand White (NZW) rabbits; details: rabbit, in vivo
[1] = cynomolgus monkey, in vivo

Molecule	Blood sample, B. anthracis positive culture, Study Day 34 (end of study) (B. anthracis)	Blood sample, B. anthracis positive culture, moribund euthanized or found dead (B. anthracis)	Tissue (spleen) sample, B. anthracis positive culture, Study Day 34 (end of study) (B. anthracis)	Tissue (spleen) sample, B. anthracis positive culture, moribund euthanized or found dead (B. anthracis)	Blood sample, B. anthracis positive culture, Study Day 34 (end of study) (B. anthracis; iv)	Tissue (spleen) sample, B. anthracis positive culture, Study Day 34 (end of study) (B. anthracis; iv)	bioavailability of IM anti-PA as compared to IV administration [1]	clearance (in words) [1]	volume of distribution at a steady-state (in words) [1]	AUC (0-inf) dose dependency (in words) ([1]; im, 10 mg/kg)
C[C@H]1COc2c(N3CCN(C)CC3)c(F)cc3c(=O)c(C(=O)O)cn1c23 [Levofloxacin, levofloxacin, reference compound]	0/4	8/8	0/4	7/8						
B1	0/4		0/4		0/4	0/4	83%	lower clearance	small volume of distribution	linear by dose
